Laboratory results as given in patent US20260250711A1 (Alexion, published 2026).

Biological target: T1, human sortilin receptor (SORT1), recombinant protein (human, UniProt Q99523 78-755, limits assumed)
T1 construct: Recombinant protein; also called sortilin 1
T1 sequence (looked up): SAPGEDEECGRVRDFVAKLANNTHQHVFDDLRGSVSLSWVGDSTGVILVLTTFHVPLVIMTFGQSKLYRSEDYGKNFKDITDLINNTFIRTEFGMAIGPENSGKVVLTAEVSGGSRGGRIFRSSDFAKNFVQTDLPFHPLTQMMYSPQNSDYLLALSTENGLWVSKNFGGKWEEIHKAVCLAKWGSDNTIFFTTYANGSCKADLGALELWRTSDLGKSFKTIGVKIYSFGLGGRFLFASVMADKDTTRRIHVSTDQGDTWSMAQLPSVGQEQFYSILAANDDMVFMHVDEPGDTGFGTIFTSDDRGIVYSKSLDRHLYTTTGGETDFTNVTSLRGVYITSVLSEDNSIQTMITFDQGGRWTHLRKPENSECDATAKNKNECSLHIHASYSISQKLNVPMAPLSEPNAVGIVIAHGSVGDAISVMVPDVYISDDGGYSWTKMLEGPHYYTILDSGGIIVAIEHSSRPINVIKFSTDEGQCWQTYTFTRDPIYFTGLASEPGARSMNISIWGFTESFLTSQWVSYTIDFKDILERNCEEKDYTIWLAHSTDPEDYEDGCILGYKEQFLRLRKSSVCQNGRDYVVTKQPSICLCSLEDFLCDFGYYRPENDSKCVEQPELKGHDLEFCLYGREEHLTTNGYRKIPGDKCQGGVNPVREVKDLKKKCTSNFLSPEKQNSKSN
Assay: Biacore (SPR), His-tagged PGRNΔ3 over immobilized human sortilin

B1: recombinant human His-tagged progranulin lacking the final three carboxy-terminal amino acids (PGRNΔ3) (ligand)
chain: TRCPDGQFCPVACCLDPGGASYSCCRPLLDKWPTTLSRHLGGPCQVDAHCSAGHSCIFTVSGTSSCCPFPEAVACGDGHHCCPRGFHCSADGRSCFQRSGNNSVGAIQCPDSQFECPDFSTCCVMVDGSWGCCPMPQASCCEDRVHCCPHGAFCDLVHTRCITPTGTHPLAKKLPAQRTNRAVALSSSVMCPDARSRCPDGSTCCELPSGKYGCCPMPNATCCSDHLHCCPQDTVCDLIQSKCLSKENATTDLLTKLPAHTVGDVKCDMEVSCPDGYTCCRLQSGAWGCCPFTQAVCCEDHIHCCPAGFTCDTQKGTCEQGPHQVPWMEKAPAHLSLPDPQALKRDVPCDNVSSCPSSDTCCQLTSGEWGCCPIPEAVCCSDHQHCCPQGYTCVAEGQCQRGSEIVAGLEKMPARRASLSHPRDIGCDQHTSCPVGQTCCPSLGGSWACCQLPHAVCCEDRQHCCPAGYTCNVKARSCEKEVVSAQPATFLARSPHVGVKDVECGEGHFCHDNQTCCRDNRQGWACCPYRQGVCCADRRHCCPAGFRCAARGTKCLRREAPRWDAPLRDPALR
notes: also called PGRNDel3; progranulinΔ3; not shown: HIS-tag fused to the N-terminal part of the protein
binding result: no binding
